# Where no end group is shown, it is not given here.
# B1: Phage-2989 (peptide)
# peptide: TVVMCKPSWMCEGF
# notes: It was tested as crude clonal phage supernatant; also called Peptide-180 library clone
# B2: Phage-2990 (peptide)
# peptide: TTIMCEPTWMCTGF
# modifications: cysteine pairing not given here; also: peptide displayed as fusion to phage pIII
# B3: Phage-2993 (peptide)
# peptide: LAHMCIPAWMCAGL
# modifications: cysteine pairing not given here; also: peptide displayed as fusion to phage pIII
# Columns and labels:
# [1] = target: T1, Anti-PSMA Fab (006 PSMA Fab) (biotinylated (site not stated)); test: clonal phage ELISA, biotinylated PSMA Fab on neutravidin plates, anti-M13 HRP detection
# T1 construct: Biotinylated PSMA Fab captured on neutravidin coated plates
# [2] = target: T1, Anti-PSMA Fab (006 PSMA Fab); test: clonal phage ELISA on PSMA Fab pre-incubated with PSMA antigen as competitor, anti-M13 HRP detection
# Protocol: (§1) Clonal phage were harvested as crude supernatants and screened via standard ELISAs. […] Prior to the addition of clonal phage. wells were incubated with blocking buffer and PSMA antigen or blocking buffer alone. Without washing or aspirating, clonal phage supernatants were then added to the wells and incubated for a short time. Wells were then washed followed by detection of bound phage using a horse radish conjugated anti-M13 antibody.
# PSMA Fab [3] = target: T2, PSMA Fab (biotinylated (site not stated)); test: phage ELISA; PSMA Fab on plate pre-incubated with PSMA antigen as competitor, anti-M13 HRP detection;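 note: crude clonal phage supernatants added to Fab-coated wells still holding PSMA antigen in blocking buffer, with bound phage as read-out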
# T2 construct: also called Anti-PSMA Fab; 006 PSMA Fab
# PSMA Fab [4] = target: T2, PSMA Fab; test: phage ELISA; biotinylated PSMA Fab on neutravidin plate, clonal phage supernatant, anti-M13 HRP detection;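 note: wells preincubated with PSMA antigen in blocking buffer or with blocking buffer only before clonal phage were added for a short incubation, then bound phage detected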
# Protocol: as §1
# Anti-PSMA Fab [5] = target: T3, Anti-PSMA Fab (biotinylated (site not stated)); test: phage ELISA; captured anti-PSMA Fab pre-incubated with PSMA antigen as competitor
# T3 construct: The biotinylated PSMA Fab was captured on neutravidin coated plates for the phage ELISA; also called 006 PSMA Fab
# Anti-PSMA Fab [6] = target: T3, Anti-PSMA Fab; test: phage ELISA; biotinylated anti-PSMA Fab on neutravidin plate, anti-M13-HRP detection, no PSMA antigen
# Protocol: as §1
# PSMA Fab (006 PSMA Fab) [7] = target: T4, PSMA Fab (006 PSMA Fab); test: clonal phage ELISA; biotinylated PSMA Fab on neutravidin plate, blocking buffer alone; anti-M13 HRP detection;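 note: crude clonal phage supernatants added without washing to wells pretreated with blocking buffer with or without PSMA antigen, short incubation, then washed before detecting bound phage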
# T4 construct: also called Anti-PSMA Fab; anti-PSMA Fab
# Protocol: as §1
# PSMA Fab (006 PSMA Fab) [8] = target: T4, PSMA Fab (006 PSMA Fab); test: clonal phage ELISA; biotinylated PSMA Fab on neutravidin plate, wells pre-incubated with PSMA antigen (competitor); anti-M13 HRP detection
# Protocol: as §1
binder,measurement,setting,value
VEPMCRPAWMCLGF [Phage-3004],"Phage binding ELISA signal, Anti-PSMA Fab",[1],2.21
same,"Phage binding ELISA signal, Anti-PSMA Fab with PSMA antigen",[2],0.0882
AIAHCIPQWMCSGF [Phage-2995],"phage binding ELISA signal (Anti-PSMA Fab, PSMA antigen present)",PSMA Fab [3],0.0878
same,"Phage binding ELISA signal, Anti-PSMA Fab",PSMA Fab [4],2.22
PAEWCIPVWMCTGF [Phage-3015],"Phage binding ELISA signal, Anti-PSMA Fab",[1],2.2
same,"Phage binding ELISA signal, Anti-PSMA Fab with PSMA antigen",[2],0.0732
QWLRCEPEWMCIGF [Phage-3012],"Phage binding ELISA signal, Anti-PSMA Fab",[1],2.21
same,"Phage binding ELISA signal, Anti-PSMA Fab with PSMA antigen",[2],0.212
PEALCMPPWMCHGF [Phage-2996],"phage binding ELISA signal (Anti-PSMA Fab, PSMA antigen present)",PSMA Fab [3],0.0657
same,"Phage binding ELISA signal, Anti-PSMA Fab",PSMA Fab [4],2.22
ANVACIPPWMCLGF [Phage-3016],"Phage binding ELISA signal, Anti-PSMA Fab",[1],2.2
same,"Phage binding ELISA signal, Anti-PSMA Fab with PSMA antigen",[2],0.109
VVAHCVPSWMCTGF [Phage-2998],"phage binding ELISA signal (Anti-PSMA Fab, PSMA antigen present)",PSMA Fab [3],0.0901
same,"Phage binding ELISA signal, Anti-PSMA Fab",PSMA Fab [4],2.22
B1,"Phage binding ELISA signal, Anti-PSMA Fab with PSMA antigen",Anti-PSMA Fab [5],0.083
same,"Phage binding ELISA signal, Anti-PSMA Fab",Anti-PSMA Fab [6],2.22
GGLRCEPMWMCHGF [Phage-3021],"Phage binding ELISA signal, Anti-PSMA Fab",PSMA Fab (006 PSMA Fab) [7],2.2
same,"Phage binding ELISA signal, Anti-PSMA Fab in presence of PSMA antigen",PSMA Fab (006 PSMA Fab) [8],0.122
WEPVCKPDWMCNGF [Phage-3011],"Phage binding ELISA signal, Anti-PSMA Fab",[1],2.21
same,"Phage binding ELISA signal, Anti-PSMA Fab with PSMA antigen",[2],0.08
MLPWCVPHWMCDGF [Phage-3003],"phage binding ELISA signal (Anti-PSMA Fab, PSMA antigen present)",PSMA Fab [3],0.132
same,"Phage binding ELISA signal, Anti-PSMA Fab",PSMA Fab [4],2.21
WWPSCVPEWMCAGL [Phage-3009],"Phage binding ELISA signal, Anti-PSMA Fab",[1],2.21
same,"Phage binding ELISA signal, Anti-PSMA Fab with PSMA antigen",[2],0.129
EEKMCTPQWMCSGF [Phage-3020],"Phage binding ELISA signal, Anti-PSMA Fab",PSMA Fab (006 PSMA Fab) [7],2.2
same,"Phage binding ELISA signal, Anti-PSMA Fab in presence of PSMA antigen",PSMA Fab (006 PSMA Fab) [8],0.0688
HEAMCRPTWMCHGF [Phage-3018],"Phage binding ELISA signal, Anti-PSMA Fab",PSMA Fab (006 PSMA Fab) [7],2.2
same,"Phage binding ELISA signal, Anti-PSMA Fab in presence of PSMA antigen",PSMA Fab (006 PSMA Fab) [8],0.0722
STMMCVPPWMCMGF [Phage-3013],"Phage binding ELISA signal, Anti-PSMA Fab",[1],2.21
same,"Phage binding ELISA signal, Anti-PSMA Fab with PSMA antigen",[2],0.0775
EIPVCRPAWMCLGL [Phage-3000],"phage binding ELISA signal (Anti-PSMA Fab, PSMA antigen present)",PSMA Fab [3],0.0698
same,"Phage binding ELISA signal, Anti-PSMA Fab",PSMA Fab [4],2.22
IARMCVPEWMCQEL [Phage-2999],"phage binding ELISA signal (Anti-PSMA Fab, PSMA antigen present)",PSMA Fab [3],0.107
same,"Phage binding ELISA signal, Anti-PSMA Fab",PSMA Fab [4],2.22
MSPRCVPMWMCDWL [Phage-2997],"phage binding ELISA signal (Anti-PSMA Fab, PSMA antigen present)",PSMA Fab [3],0.0821
same,"Phage binding ELISA signal, Anti-PSMA Fab",PSMA Fab [4],2.22
IESRCVPEWMCYGF [Phage-3019],"Phage binding ELISA signal, Anti-PSMA Fab",PSMA Fab (006 PSMA Fab) [7],2.2
same,"Phage binding ELISA signal, Anti-PSMA Fab in presence of PSMA antigen",PSMA Fab (006 PSMA Fab) [8],0.0726
GMPYCVPEWMCSWL [Phage-3010],"Phage binding ELISA signal, Anti-PSMA Fab",[1],2.21
same,"Phage binding ELISA signal, Anti-PSMA Fab with PSMA antigen",[2],0.0827
DHLMCKPSWMCKGF [Phage-3022],"Phage binding ELISA signal, Anti-PSMA Fab",PSMA Fab (006 PSMA Fab) [7],2.19
same,"Phage binding ELISA signal, Anti-PSMA Fab in presence of PSMA antigen",PSMA Fab (006 PSMA Fab) [8],0.0924
SEVMCVPQWMCNGF [Phage-3008],"Phage binding ELISA signal, Anti-PSMA Fab",[1],2.21
same,"Phage binding ELISA signal, Anti-PSMA Fab with PSMA antigen",[2],0.0981
B2,"phage binding ELISA signal (Anti-PSMA Fab, PSMA antigen present)",PSMA Fab [3],0.0683
same,"Phage binding ELISA signal, Anti-PSMA Fab",PSMA Fab [4],2.22
TVPKCVPNWMCDWL [Phage-3023],"Phage binding ELISA signal, Anti-PSMA Fab",PSMA Fab (006 PSMA Fab) [7],2.19
same,"Phage binding ELISA signal, Anti-PSMA Fab in presence of PSMA antigen",PSMA Fab (006 PSMA Fab) [8],0.0864
AELLCVPTWMCMGF [Phage-3014],"Phage binding ELISA signal, Anti-PSMA Fab",[1],2.2
same,"Phage binding ELISA signal, Anti-PSMA Fab with PSMA antigen",[2],0.0679
FHVRCVPEWMCWGF [Phage-2991],"phage binding ELISA signal (Anti-PSMA Fab, PSMA antigen present)",PSMA Fab [3],0.153
same,"Phage binding ELISA signal, Anti-PSMA Fab",PSMA Fab [4],2.22
MMPLCMPTWMCEGF [Phage-3001],"phage binding ELISA signal (Anti-PSMA Fab, PSMA antigen present)",PSMA Fab [3],0.075
same,"Phage binding ELISA signal, Anti-PSMA Fab",PSMA Fab [4],2.22
LQSMCRPAWMCTGF [Phage-2994],"phage binding ELISA signal (Anti-PSMA Fab, PSMA antigen present)",PSMA Fab [3],0.0839
same,"Phage binding ELISA signal, Anti-PSMA Fab",PSMA Fab [4],2.22
MYHMCRPSWMCEGF [Phage-3007],"Phage binding ELISA signal, Anti-PSMA Fab",[1],2.21
same,"Phage binding ELISA signal, Anti-PSMA Fab with PSMA antigen",[2],0.142
B3,"phage binding ELISA signal (Anti-PSMA Fab, PSMA antigen present)",PSMA Fab [3],0.104
same,"Phage binding ELISA signal, Anti-PSMA Fab",PSMA Fab [4],2.22
YQLLCKPEWMCVGF [Phage-3002],"phage binding ELISA signal (Anti-PSMA Fab, PSMA antigen present)",PSMA Fab [3],0.0672
same,"Phage binding ELISA signal, Anti-PSMA Fab",PSMA Fab [4],2.21
ALPMCEPFWMCTGF [Phage-3005],"Phage binding ELISA signal, Anti-PSMA Fab",[1],2.21
same,"Phage binding ELISA signal, Anti-PSMA Fab with PSMA antigen",[2],0.0628
VQGVCVPSWMCTGF [Phage-3017],"Phage binding ELISA signal, Anti-PSMA Fab",[1],2.2
same,"Phage binding ELISA signal, Anti-PSMA Fab with PSMA antigen",[2],0.0875
YEIRCEPKWMCMGF [Phage-2992],"phage binding ELISA signal (Anti-PSMA Fab, PSMA antigen present)",PSMA Fab [3],0.0735
same,"Phage binding ELISA signal, Anti-PSMA Fab",PSMA Fab [4],2.22
VMVECRPAWMCNGF [Phage-3006],"Phage binding ELISA signal, Anti-PSMA Fab",[1],2.21
same,"Phage binding ELISA signal, Anti-PSMA Fab with PSMA antigen",[2],0.0636

# Reference: patent US20260242478A1 (published 2026)
